For the series the following is noted: Pseudomonas putida; pH 7; 25 °C; Urea; CD; potassium phosphate 20 mM; reversible: yes; whole UniProt chain shown.

B1: Steroid Delta-isomerase wild type, P07445 (protein)
chain: MNLPTAQEVQGLMARYIELVDVGDIEAIVQMYADDATVEDPFGQPPIHGREQIAAFYRQGLGGGKVRACLTGPVRASHNGCGAMPFRVEMVWNGQPCALDVIDVMRFDEHGRIQTMQAYWSEVNLSVREPQ
For the protein B1, the denaturant m value was found to be 3.39 kcal/mol/M, the “denaturant midpoint (higher = more stable)” value amounted to 5.22 M and the unfolding free energy is 24.3 kcal/mol.

Values taken from FireProtDB (doi:10.1021/bi015547k).
